Data on one substance can be found in patent US20080045450A1, “GLP-2 Derivatives” (priority 1996, published 2008).

The series in a line: Helix content by circular dichroism (CD) at 222 nm in aqueous solution. The format is physicochemical. The text has this:
The size of the partially helical, micelle-like aggregates may be estimated by size-exclusion chromatography. Similarly, the apparent (critical micelle concentrations) CMC's of the peptides may be estimated from the concentration dependent fluorescence in the presence of appropriate dyes (e.g. Brito, R. & Vaz, W. (1986) Anal. Biochem. 152, 250-255).
For the GLP-2 derivatives forming partially structured micellar-like aggregates in aqueous solution the helix content remains constant above 30% at concentrations of 10 μM. The aggregated structured conformation is an inherent property of the derivative present in water or dilute aqueous buffer without the need for any additional structure-inducing components. Note that the CD signal is proportional to the average content of α-helix in the peptides, i.e., a CD value of −1 corresponds to 10% α-helix content under these conditions.

As for “native GLP-2: human glucagon-like peptide-2, a 33 amino acid residue peptide; parent peptide of the derivatives”, the helix content is, setting by setting: (at 500 μM concentration, in parallel with peptide self-association) 30-35%; (starting value at low peptide concentration, before the increase seen with increasing concentration) 10-15%.
